Test results from patent US20200024330A1.

Legend:
Assay in all cases: cell-based or functional assay
[1] = target: HIV-1 Env of isolate MGRM-Chronic-B-011 (HIV-1)
[2] = target: HIV-1 Env of isolate MGRM-F1-016 (HIV-1)
[3] = target: HIV-1 Env of isolate SF162 (HIV-1) (UniProt P19550)
[4] = target: HIV-1 Env of isolate 93MW959 (HIV-1)
[5] = target: HIV-1 Env of isolate MGRM-D-021 (HIV-1)
[6] = target: HIV-1 Env of isolate 98IN022 (HIV-1)
[7] = target: HIV-1 Env of isolate MGRM-Chronic-B-023 (HIV-1)
[8] = target: HIV-1 Env of isolate MGRM-D-020 (HIV-1)
[9] = target: HIV-1 Env of isolate MGRM-F1-015 (HIV-1)
[10] = target: HIV-1 Env of isolate MGRM-F1-013 (HIV-1)
[11] = target: HIV-1 Env of isolate 97ZA012 (HIV-1)
[12] = target: HIV-1 Env of isolate JRCSF (HIV-1) (UniProt P20871)
[13] = target: HIV-1 Env of isolate TRJ04551.58 (HIV-1)
[14] = target: HIV-1 Env of isolate MGRM-D-024 (HIV-1)
[15] = target: HIV-1 Env of isolate MGRM-F1-020 (HIV-1)
[16] = target: HIV-1 Env of isolate MGRM-F1-017 (HIV-1)
[17] = target: HIV-1 Env of isolate MGRM-F1-004 (HIV-1)
[18] = target: HIV-1 Env of isolate MGRM-Chronic-B-020 (HIV-1)
[19] = target: HIV-1 Env of isolate MGRM-F1-022 (HIV-1)
[20] = target: HIV-1 Env of isolate QH0692.42 (HIV-1)
[21] = target: HIV-1 Env of isolate NL43 (HIV-1)
[22] = target: HIV-1 Env of isolate MGRM-D-011 (HIV-1)
[23] = target: HIV-1 Env of isolate MGRM-D-016 (HIV-1)
[24] = target: HIV-1 Env of isolate SC422661.8 (HIV-1)
[25] = target: HIV-1 Env of isolate MGRM-D-028 (HIV-1)
[26] = target: HIV-1 Env of isolate MGRM-D-013 (HIV-1)
[27] = target: HIV-1 Env of isolate MGRM-F1-008 (HIV-1)
[28] = target: HIV-1 Env of isolate 93IN905 (HIV-1)
[29] = target: HIV-1 Env of isolate MGRM-D-014 (HIV-1)
[30] = target: HIV-1 Env of isolate MGRM-F1-006 (HIV-1)
[31] = target: HIV-1 Env of isolate MGRM-D-012 (HIV-1)
[32] = target: HIV-1 Env of isolate MGRM-D-019 (HIV-1)
[33] = target: HIV-1 Env of isolate MGRM-Chronic-B-017 (HIV-1)
[34] = target: HIV-1 Env of isolate MGRM-F1-023 (HIV-1)
[35] = target: HIV-1 Env of isolate MGRM-F1-018 (HIV-1)
[36] = target: HIV-1 Env of isolate MGRM-F1-010 (HIV-1)
[37] = target: HIV-1 Env of isolate MGRM-F1-012 (HIV-1)
[38] = target: HIV-1 Env of isolate MGRM-Chronic-B-012 (HIV-1)
[39] = target: HIV-1 Env of isolate MGRM-D-026 (HIV-1)
[40] = target: HIV-1 Env of isolate THR0.18 (HIV-1)
[41] = target: HIV-1 Env of isolate VLGCB3 (HIV-1)
[42] = target: HIV-1 Env of isolate PVO.4 (HIV-1)
[43] = target: HIV-1 Env of isolate MGRM-D-018 (HIV-1)
[44] = target: HIV-1 Env of isolate MGRM-Chronic-B-018 (HIV-1)
[45] = target: HIV-1 Env of isolate MGRM-D-029 (HIV-1)
[46] = target: HIV-1 Env of isolate MGRM-Chronic-B-024 (HIV-1)
[47] = target: HIV-1 Env of isolate MGRM-Chronic-B-010 (HIV-1)
[48] = target: HIV-1 Env of isolate MGRM-F1-014 (HIV-1)
[49] = target: HIV-1 Env of isolate MGRM-D-022 (HIV-1)
[50] = target: HIV-1 Env of isolate TRO.11 (HIV-1)
[51] = target: HIV-1 Env of isolate MGRM-F1-021 (HIV-1)

Sequence of PGT-143 (antibody) (VH): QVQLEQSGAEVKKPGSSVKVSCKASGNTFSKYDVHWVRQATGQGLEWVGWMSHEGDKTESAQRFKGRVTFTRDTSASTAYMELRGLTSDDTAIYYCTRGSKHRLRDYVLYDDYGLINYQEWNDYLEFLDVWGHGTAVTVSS
Sequence of PGT-143 (antibody) (VL): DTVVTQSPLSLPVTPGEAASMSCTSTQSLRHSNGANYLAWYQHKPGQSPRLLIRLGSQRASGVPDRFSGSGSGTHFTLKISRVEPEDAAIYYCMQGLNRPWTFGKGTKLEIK
Sequence of PGT-142 (antibody) (VH): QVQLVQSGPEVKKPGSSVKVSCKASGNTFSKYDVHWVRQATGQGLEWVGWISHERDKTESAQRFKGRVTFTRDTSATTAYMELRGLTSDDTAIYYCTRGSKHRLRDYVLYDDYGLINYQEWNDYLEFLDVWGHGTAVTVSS
Sequence of PGT-142 (antibody) (VL): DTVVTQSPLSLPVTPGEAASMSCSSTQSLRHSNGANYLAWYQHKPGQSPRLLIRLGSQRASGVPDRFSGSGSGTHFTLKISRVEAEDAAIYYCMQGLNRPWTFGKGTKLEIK

PGT-142 (antibody)
neutralization IC50 [1]: 0.994 µg/mL
IC50, pseudovirus neutralization [2]: > 50 µg/mL
neutralization IC50 [3]: > 50 µg/mL
neutralization IC50 [4]: 0.001 µg/mL
IC50, pseudovirus neutralization [5]: > 50 µg/mL
neutralization IC50 [6]: 0.001 µg/mL
neutralization IC50 [7]: 0.486 µg/mL
IC50, pseudovirus neutralization [8]: > 50 µg/mL
IC50, pseudovirus neutralization [9]: > 50 µg/mL
IC50, pseudovirus neutralization [10]: 0.023 µg/mL
neutralization IC50 [11]: > 50 µg/mL
neutralization IC50 [12]: 0.01 µg/mL
neutralization IC50 [13]: > 50 µg/mL
IC50, pseudovirus neutralization [14]: > 50 µg/mL
IC50, pseudovirus neutralization [15]: 0.824 µg/mL
IC50, pseudovirus neutralization [16]: 23.5 µg/mL
IC50, pseudovirus neutralization [17]: 0.013 µg/mL
neutralization IC50 [18]: > 50 µg/mL
IC50, pseudovirus neutralization [19]: 0.04 µg/mL
neutralization IC50 [20]: > 50 µg/mL
neutralization IC50 [21]: > 50 µg/mL
IC50, pseudovirus neutralization [22]: > 50 µg/mL
IC50, pseudovirus neutralization [23]: > 50 µg/mL
neutralization IC50 [24]: 3.15 µg/mL
IC50, pseudovirus neutralization [25]: > 50 µg/mL
IC50, pseudovirus neutralization [26]: 0.221 µg/mL
IC50, pseudovirus neutralization [27]: 0.124 µg/mL
neutralization IC50 [28]: 0.001 µg/mL
IC50, pseudovirus neutralization [29]: 0.005 µg/mL
IC50, pseudovirus neutralization [30]: 12.9 µg/mL
IC50, pseudovirus neutralization [31]: > 50 µg/mL
IC50, pseudovirus neutralization [32]: 0.155 µg/mL
neutralization IC50 [33]: 0.076 µg/mL
IC50, pseudovirus neutralization [34]: 0.602 µg/mL
IC50, pseudovirus neutralization [35]: 0.404 µg/mL
IC50, pseudovirus neutralization [36]: > 50 µg/mL
IC50, pseudovirus neutralization [37]: > 50 µg/mL
neutralization IC50 [38]: > 50 µg/mL
IC50, pseudovirus neutralization [39]: 12.5 µg/mL
neutralization IC50 [40]: 0.012 µg/mL
neutralization IC50 [41]: > 50 µg/mL
neutralization IC50 [42]: 0.066 µg/mL
IC50, pseudovirus neutralization [43]: > 50 µg/mL
neutralization IC50 [44]: 0.323 µg/mL
IC50, pseudovirus neutralization [45]: 0.192 µg/mL
neutralization IC50 [46]: 0.005 µg/mL
neutralization IC50 [47]: > 50 µg/mL
IC50, pseudovirus neutralization [48]: 0.001 µg/mL
IC50, pseudovirus neutralization [49]: > 50 µg/mL
neutralization IC50 [50]: 0.27 µg/mL
IC50, pseudovirus neutralization [51]: > 50 µg/mL

PGT-143 (antibody)
neutralization IC50 [1]: 1.56 µg/mL
IC50, pseudovirus neutralization [2]: > 50 µg/mL
neutralization IC50 [3]: > 50 µg/mL
neutralization IC50 [4]: 0.002 µg/mL
IC50, pseudovirus neutralization [5]: > 50 µg/mL
neutralization IC50 [6]: 0.001 µg/mL
neutralization IC50 [7]: 0.236 µg/mL
IC50, pseudovirus neutralization [8]: > 50 µg/mL
IC50, pseudovirus neutralization [9]: > 50 µg/mL
IC50, pseudovirus neutralization [10]: 0.013 µg/mL
neutralization IC50 [11]: > 50 µg/mL
neutralization IC50 [12]: 0.007 µg/mL
neutralization IC50 [13]: > 50 µg/mL
IC50, pseudovirus neutralization [14]: > 50 µg/mL
IC50, pseudovirus neutralization [15]: 0.98 µg/mL
IC50, pseudovirus neutralization [16]: 26.3 µg/mL
IC50, pseudovirus neutralization [17]: 0.036 µg/mL
neutralization IC50 [18]: > 50 µg/mL
IC50, pseudovirus neutralization [19]: 0.082 µg/mL
neutralization IC50 [20]: > 50 µg/mL
neutralization IC50 [21]: > 50 µg/mL
IC50, pseudovirus neutralization [22]: > 50 µg/mL
IC50, pseudovirus neutralization [23]: > 50 µg/mL
neutralization IC50 [24]: 2.02 µg/mL
IC50, pseudovirus neutralization [25]: > 50 µg/mL
IC50, pseudovirus neutralization [26]: 0.386 µg/mL
IC50, pseudovirus neutralization [27]: 0.189 µg/mL
neutralization IC50 [28]: 0.002 µg/mL
IC50, pseudovirus neutralization [29]: 0.009 µg/mL
IC50, pseudovirus neutralization [30]: 12.3 µg/mL
IC50, pseudovirus neutralization [31]: > 50 µg/mL
IC50, pseudovirus neutralization [32]: 0.277 µg/mL
neutralization IC50 [33]: 0.145 µg/mL
IC50, pseudovirus neutralization [34]: 0.972 µg/mL
IC50, pseudovirus neutralization [35]: 0.701 µg/mL
IC50, pseudovirus neutralization [36]: > 50 µg/mL
IC50, pseudovirus neutralization [37]: > 50 µg/mL
neutralization IC50 [38]: > 50 µg/mL
IC50, pseudovirus neutralization [39]: 44.6 µg/mL
neutralization IC50 [40]: 0.016 µg/mL
neutralization IC50 [41]: > 50 µg/mL
neutralization IC50 [42]: 0.162 µg/mL
IC50, pseudovirus neutralization [43]: > 50 µg/mL
neutralization IC50 [44]: 0.377 µg/mL
IC50, pseudovirus neutralization [45]: 0.2 µg/mL
neutralization IC50 [46]: 0.01 µg/mL
neutralization IC50 [47]: > 50 µg/mL
IC50, pseudovirus neutralization [48]: 0.001 µg/mL
IC50, pseudovirus neutralization [49]: > 50 µg/mL
neutralization IC50 [50]: 0.219 µg/mL
IC50, pseudovirus neutralization [51]: > 50 µg/mL
